Molecular target: T1, recombinant human (rh) His-tagged IL-12Rβ1 ECD (human, UniProt P42701 24-545)
T1 construct: Interleukin-12 receptor subunit beta-1, human, extracellular domain; Loaded on anti-Penta His (HIS1K) biosensors through its His tag; also called (rh) IL-12Rβ1; IL-12 receptor subunit β1; source: bought: Acro Biosystems (ILB-H52H9)
Assay: BLI; epitope binning / competition: 5 μg/mL His-tagged (rh) IL-12Rβ1 ECD loaded on HIS1K biosensors in PBS; first association 200 nM for 300 s, then second association 200 nM for 300 s with a 100 nM spike of the first molecule; kinetics buffer (PBS + 0.1% Tween-20, 1% BSA); 25°C, 1000 rpm; competition with rh IL-12 analysed in the same combinatorial manner
Settings: both partners purified

- binding result: binds
B1: recombinant human (rh) IL-12 (complex)
chain 1: RNLPVATPDPGMFPCLHHSQNLLRAVSNMLQKARQTLEFYPCTSEEIDHEDITKDKTSTVEACLPLELTKNESCLNSRETSFITNGSCLASRKTSFMMALCLSSIYEDLKMYQVEFKTMNAKLLMDPKRQIFLDQNMLAVIDELMQALNFNSETVPQKSSLEEPDFYKTKIKLCILLHAFRIRAVTIDRVMSYLNAS
chain 2: IWELKKDVYVVELDWYPDAPGEMVVLTCDTPEEDGITWTLDQSSEVLGSGKTLTIQVKEFGDAGQYTCHKGGEVLSHSLLLLHKKEDGIWSTDILKDQKEPKNKTFLRCEAKNYSGRFTCWWLTTISTDLTFSVKSSRGSSDPQGVTCGAATLSAERVRGDNKEYEYSVECQEDSACPAAEESLPIEVMVDAVHKLKYENYTSSFFIRDIIKPDPPKNLQLKPLKNSRQVEVSWEYPDTWSTPHSYFSLTFCVQVQGKSKREKKDRVFTDKTSATVICRKNASISVRAQDRYYSSSWSEWASVPCS
notes: Interleukin-12 p35 alpha-subunit (IL12A), human; Interleukin-12 p40 beta-subunit (IL12B), human; Heterodimeric cytokine of p35 and p40; also called wild-type IL-12; interleukin-12; source: bought: Acro Biosystems
